Laboratory results taken from publication PMC8038143, “Conformation-Specific Inhibitory Anti-MMP-7 Monoclonal Antibody Sensitizes Pancreatic Ductal Adenocarcinoma Cells to Chemotherapeutic Cell Kill” (Cancers, 2021).

Experiments:
[1] = molecular target: T1, recombinant catalytic human MMP-7 (active enzyme) (Homo sapiens, UniProt P09237); test: cell-based or functional assay
[2] = molecular target: T1, recombinant catalytic human MMP-7 …; test: ELISA; 96-well plate coated with MMPs at 5 mg/mL; GSM-192 incubated at 25 °C for 1 h; detected with goat anti-Fab/anti-mouse antibody and peroxidase-conjugated anti-goat antibody; four-parametric sigmoidal fit; conditions: both partners purified

T1 sequence (P09237 95-258): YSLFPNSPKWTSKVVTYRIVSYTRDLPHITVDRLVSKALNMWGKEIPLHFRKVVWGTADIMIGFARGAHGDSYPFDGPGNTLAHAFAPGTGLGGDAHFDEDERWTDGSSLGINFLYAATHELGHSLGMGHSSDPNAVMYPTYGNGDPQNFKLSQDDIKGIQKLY

B1: GSM-192 anti-MMP-7 monoclonal antibody (antibody, V domains shown)
VH: EVQLQQSGPELVKPGASVKIPCKASGYTFTDYNMDWMKQSHGKSLEWIGHINPNNGGTFYNQKFKDKATFIVDKSSNTAYMELRSLTSEDTAVYFCARGGGLRRGPFAYWGQGTLVTVS
VL: DIVTQSPASLAVSLGQRATISCRASESFDSYGNTFVHWYQQKPGQPPKLLIYLVSNLESGVPAGFRGRGSRTDFTLTIDPVEADDAATYYCQQNNEDPYTFGGGTKLEIK
notes: Whole mouse monoclonal antibody; source: mouse hybridoma (BALB/c B cells fused with NSO myeloma cells), supernatant, purified (protein A column)
- death of AsPC-1 PDAC cells treated with GSM-192, IC50 [1]: 2.3 µM
- death of CFPAC-1 PDAC cells treated with GSM-192, IC50 [1]: 4.3 µM
- EC50 [2]: 0.043 ± 0.001 µM
